In patent US20240228660A1 (IP2IPO INNOVATIONS, published 2024):
Residue numbers refer to the chain shown, from its start.

B1: 1-D5 (antibody, human IgG1, V domains shown)
VH: QQQLVESGGRLVTPGTPLTLTCAVSGFSLNNYIMGWVRQAPGKGLEYIGIISTGGSTYYASWAKGRFTISRTSTTMDLKMTSLTTEDTATYFCARGGSSAGAGFNIWGPGTLVTVSS
VL: DIVMTQTPSSVSAAVGDTVTIQCQASQSINSGLAWYQQKPGQPPKRLIYKASTLASGVPSRFRGSGSGTDFTLTISDLECADAATYYCQSYHYISANGATFGGGTEVVVE
notes: Rabbit-derived variable domains expressed as human IgG1; also called clone 1-D5; antibody 1-D5
B2: 1-A2 (antibody, human IgG1, V domains shown)
VH: QSVEESGGRLVPPGTPLTLTCTVSGIDLTSNAMNWVRQAPGKGLEWIGGIYGHDTSYYAAWAKGRFTISRTSTTVDLKMTRPTTDDTATYFCARGFIYFDIWGTGTLVTISS
VL: AIEMTQTPPSLSASVGETVRIRCLASEDIYSGISWYQQKPGKPPTLLIYGASNLESGVPPRFSGSGSGTDYTLTIGGVQAEDAATYYCLGGHSHSTTDLTFGAGTKVEIK
notes: Rabbit-derived variable domains cloned into a human IgG1 expression vector and expressed as monoclonal antibody; also called clone 1-A2; antibody 1-A2
B3: 4-H3 (antibody, human IgG1, V domains shown)
VH: B2 VH with V3L
VL: B2 VL with I2Y, E3D, Y30A, H92Y, H94F, T96S, T97N, D98G
notes: Rabbit-derived variable domains expressed as human IgG1; also called clone 4-H3
B4: 3-H9 (antibody, human IgG1, V domains shown)
VH: QSLEESGGRLVTPGTPLTLTCSVSGFSLSNYDMSWVRQAPGKGLEWIGSIHAIGITYYANWAEGRFTISKTSTTVDLKMTSLTTEDTATYFCARGLVDLNMWGPGTLVTVSS
VL: AIKMTQTPSSVSVAVGGTVTINCQSSQSVYSNNLLSWYQQKPGQPPKLLIYDASTLESGVPSRFKGSGSGTQFTLTISGVQCEDAATYYCQGSYYSSGWYNTFGGGTEVVVE
notes: Rabbit-derived variable domains expressed as human IgG1; also called clone 3-H9; antibody 3-H9
B5: 1-G5 (antibody, human IgG1, V domains shown)
VH: B4 VH with N30S, S34T, I53T, Y57F, E63K, I68T
VL: DPVMTQTASSVSAAVGGTVTINCQASQSVYNNNYLSWYQQKPGQPPKLLIYDASTLASGVPSRFSGNGSGTQFTLTISGVQCDDAATYYCQGSYYSGGWDTAFGGGTKVVVK
notes: Rabbit-derived variable domains expressed as human IgG1; also called clone 1-G5
B6: 1-D5_H2_L1 (antibody, human IgG1, kappa, V domains shown)
VH: QQQLVESGGGVVQPGRSLRLSCAASGFSLNNYIMGWVRQAPGKGLEYIGIISTGGSTYYASWAKGRFTISRDSNTMYLQMNSLRAEDTATYFCARGGSSAGAGFNIWGQGTLVTVSS
VL: DIQMTQSPSSLSASVGDRVTITCQASQSINSGLAWYQQKPGKAPKRLIYKASTLASGVPSRFSGSGSGTDFTLTISSLQPEDFATYYCQSYHYISANGATFGGGTKVEIKT
notes: humanised, human IgG1 kappa
B7: 1-D5_H2_L0 (antibody, human IgG1, kappa, V domains shown)
VH: B6 VH
VL: B6 VL with R46L
notes: humanised, human IgG1 kappa
B8: 1-D5_H1_L1 (antibody, human IgG1, kappa, V domains shown)
VH: QVQLVESGGGVVQPGRSLRLSCAASGFSLNNYIMGWVRQAPGKGLEWVAIISTGGSTYYASWAKGRFTISRDNSKNTLYLQMNSLRAEDTAVYYCARGGSSAGAGFNIWGQGTLVTVSS
VL: B6 VL
notes: humanised, human IgG1 kappa
B9: 1-D5_H0_L0 (antibody, human IgG1, kappa, V domains shown)
VH: B8 VH with S28T, L29F, N30S
VL: B6 VL with R46L
notes: humanised, human IgG1 kappa
B10: 1-D5_H0_L1 (antibody, human IgG1, kappa, V domains shown)
VH: B8 VH with S28T, L29F, N30S
VL: B6 VL
notes: humanised, human IgG1 kappa
B11: 1-D5_H1_L0 (antibody, human IgG1, kappa, V domains shown)
VH: B8 VH
VL: B6 VL with R46L
notes: humanised, human IgG1 kappa
B12: 3-H9_H2_L0 (antibody, human IgG1, kappa, V domains shown)
VH: QQLVESGGGVVQPGRSLRLSCAASGFSLSNYDMSWVRQAPGKGLEWIGSIHAIGITYYANWAEGRFTISRDKNTVYLQMNSLRAEDTATYFCARGLVDLNMWGQGTLVTVSS
VL: DIQMTQSPSSLSASVGDRVTITCQSSQSVYSNNLLSWYQQKPGKAPKLLIYDASTLESGVPSRFSGSGSGTDFTLTISSLQPEDFATYYCQGSYYSSGWYNTFGGGTKVEIKT
notes: humanised, human IgG1 kappa
B13: 3-H9_H1_L0 (antibody, human IgG1, kappa, V domains shown)
VH: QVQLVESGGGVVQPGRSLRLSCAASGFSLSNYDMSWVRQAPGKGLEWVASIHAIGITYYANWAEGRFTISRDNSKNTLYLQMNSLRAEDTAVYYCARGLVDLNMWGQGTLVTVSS
VL: B12 VL
notes: humanised, human IgG1 kappa
B14: 3-H9_H0_L0 (antibody, human IgG1, kappa, V domains shown)
VH: QVQLVESGGGVVQPGRSLRLSCAASGFTFSNYDMSWVRQAPGKGLEWVASIHAIGITYYANWAEGRFTISRDNSKNTLYLQMNSLRAEDTAVYYCARGLVDLNMWGQGTLVTVSS
VL: B12 VL
notes: humanised, human IgG1 kappa
B15: 1-G5_H2_L1 (antibody, human IgG1, kappa)
heavy: not shown
light: DPQMTQSPSSLSASVGDRVTITCQASQSVYNNNYLSWYQQKPGKAPKLLIYDASTLASGVPSRFSGSGSGTDFTLTISSLQPEDFATYYCQGSYYSGGWDTAFGGGTKVEIKTVAAPSVFIFPPSDEQLKSGTASVVCLLNNFYPREAKVQWKVDNALQSGNSQESVTEQDSKDSTYSLSSTLTLSKADYEKHKVYACEVTHQGLSSPVTKSFNRGEC
notes: humanised, human IgG1 kappa
B16: 1-G5_H2_L0 (antibody, human IgG1, kappa)
heavy: not shown
light: B15 light with P2I
notes: humanised, human IgG1 kappa
B17: 1-G5_H1_L1 (antibody, human IgG1, kappa)
heavy: not shown
light: B15 light
notes: humanised, human IgG1 kappa
B18: 1-G5_H0_L0 (antibody, human IgG1, kappa)
heavy: not shown
light: B15 light with P2I
notes: humanised, human IgG1 kappa
B19: 1-G5_H0_L1 (antibody, human IgG1, kappa)
heavy: not shown
light: B15 light
notes: humanised, human IgG1 kappa

Target: T1, human native VWF (human, UniProt P04275 764-2813)
T1 construct: Multimeric glycoprotein; also called native VWF protein; native VWF (305 kDa)
Experiment: SPR, Biacore 8K, antibody captured on Protein A, native VWF as analyte (4.4-50 nM), single-cycle kinetics, 1:1 fit; replicate 2
Protocol: (§1) The surface plasmon resonance (SPR) experiments were performed using a Biacore 8K (Cytiva) equipped with a research grade Protein A series S sensor chip. […] Flow cell 1 was left blank to serve as a reference surface. […] The complex was allowed to associate and dissociate for 120 seconds and 7200 seconds respectively. The surfaces were regenerated with 30 see injections of 10 mM glycine-HCl pH1.5.
(§2) Data were collected at a rate of 10 Hz. The data were fit to a simple 1:1 interaction model using the global data analysis option available within the Biacore Insight Evaluation software version 3.0.12.15655.

Binder | Kd [pM]
B1 | 38.1
B2 | 527
B3 | 154
B4 | 84
B5 | 79

Target: T1, human native VWF
Experiment: ELISA, native VWF coated at 20 ng/well, semi-log dilution of the mAb from 10 µg/ml, anti-human IgG-HRP/TMB
Protocol: (§3) Purified monoclonal antibodies originally derived from scFvs selected from rabbit immune library were tested for binding towards C1-C6-Fc, VWFAD4-C6, BSA (100 ng/well) and human native VWF (Imperial College, 20 ng/well). […] Protein targets were immobilized overnight on ELISA plates, blocked and incubated with a semi-log dilution series of purified recombinant monoclonal antibodies (starting concentration 10 μg/ml), averages of duplicate values are shown. Antibody binding towards human native VWF, VWFAD4-C6 and BSA were detected with antihuman IgG-HRP or anti-human IgG-HRP and TMB staining. ELISA reactivities towards C1-C6-Fc were performed in a separate ELISA experiment and were detected with anti-human IgGκ-HRP and TMB staining.

Binder | EC50 (read off the curve) [ng/mL]
B1 | ~6

Target: T2, human full-length VWF (human, UniProt P04275 764-2813)
Experiment: SPR Biacore T200, antibody captured on Protein A chip, full-length VWF as analyte, single-cycle kinetics
Protocol: (§4) Antibodies were captured on Protein A sensor chip. The system was purged using running buffer (10 mM HEPES pH 7.4, 300 mM NaCl, 3 mM EDTA, 0.05% P20) and a series S Protein A chip was docked in the Biacore T200. The surface was conditioned with 10 mM glycine-HCl pH 1.5 regeneration solution (3 injections). Each antibody was diluted to ˜0.8 μg/ml in running buffer to capture ˜350 RU on flow cells 2, 3 and 4 (flow cell 1 used as in-line reference cell). Single-cycle kinetic analysis of human full-length VWF binding to antibodies was performed using the following parameters:

Binder | Kd [pM]
B6 | < 1000
B7 | < 1000
B8 | < 1000
B9 | < 1000
B10 | < 1000
B11 | < 1000
B12 | < 1000
B13 | < 1000
B14 | < 1000
B15 | < 1000
B16 | < 1000
B17 | < 1000
B18 | < 1000
B19 | < 1000

Target: T2, human full-length VWF
Experiment: SPR, Biacore T200, antibody captured on Protein A, full-length VWF as analyte, single-cycle kinetics
Protocol: as §4

Binder | Kd [pM] | koff [s⁻¹] | kon [M⁻¹ s⁻¹]
B12 | 11.2 | 8.74e-07 | 78100
B13 | 15.6 | 2.84e-07 | 18200
B14 | 1.05 | 8.46e-08 | 80900
B5 | 25.3 | – | –
B15 | 0.174 | 2.25e-08 | 129000
B16 | 13 | 3.9e-07 | 29900
B17 | 14.8 | 6.03e-07 | 40700
B18 | 1.1 | 9.05e-08 | 82400
B19 | 12.9 | 1.02e-06 | 79000

Target: T2, human full-length VWF
Experiment: as above
Remark: another data set of the same source
Protocol: as §4

Binder | Kd [pM] | koff [s⁻¹] | kon [M⁻¹ s⁻¹]
B4 | 60.3 | – | –
B6 | 38 | 1.13e-05 | 298000
B7 | 7.66 | 1.06e-06 | 138000
B8 | 0.0946 | 6.72e-09 | 71000
B9 | 0.15 | 1.13e-08 | 75200
B10 | 1.77 | 2.99e-07 | 169000
B11 | 1.6 | 1.25e-07 | 77900

Target: T2, human full-length VWF
Experiment: as above
Remark: another data set of the same source
Protocol: as §4

Binder | Kd [pM]
B2 | 8.02
B3 | 15.3

Target: T1, human native VWF
Experiment: SPR, Biacore 8K, antibody captured on Protein A, native VWF as analyte (4.4-50 nM), single-cycle kinetics, 1:1 fit; replicate 1
Protocol: as §1, §2

Binder | Kd [pM]
B1 | 25
B2 | 164
B3 | 123
B4 | 48.7
B5 | 54.9

Target: T1, human native VWF
Experiment: ELISA, native VWF coated at 20 ng/well, semi-log dilution of the mAb from 10 µg/ml, anti-human IgG-HRP/TMB
Remark: another data set of the same source
Protocol: as §3

Binder | EC50 (read off the curve) [ng/mL]
B4 | ~8

Target: T1, human native VWF
Experiment: SPR, Biacore 8K, antibody captured on Protein A, native VWF as analyte (4.4-50 nM), single-cycle kinetics, 1:1 fit; replicate 3
Protocol: as §1, §2

Binder | Kd [pM]
B1 | 64.1
B4 | 25
B5 | 123
